Results from paper PMC5709738 (The EMBO Journal, 2017).

Legend:
[1] = target: T1, fluorescently labelled full-length Ctf19-Mcm21 (Kluyveromyces lactis, UniProt Q6CRN7+Q6CVQ9); test: microscale thermophoresis (MST) of Okp1-derived peptides with full-length Ctf19-Mcm21; assay type: binding, K. lactis; settings: NT.115 Monolith, 22–25 °C, ~27 nM NT-647-labelled Ctf19-Mcm21, ITC/MST buffer pH 7.5, thermophoresis + T jump, mean and 68% confidence interval, three independent experiments
T1 construct: we purified full-length K. lactis; NT-647-NHS red fluorescent dye on lysine side chains (chemical label); made in house; host or cells: Escherichia coli BL21 Rosetta 2(DE3)pLysS
T1 sequence (Q6CRN7 1-270): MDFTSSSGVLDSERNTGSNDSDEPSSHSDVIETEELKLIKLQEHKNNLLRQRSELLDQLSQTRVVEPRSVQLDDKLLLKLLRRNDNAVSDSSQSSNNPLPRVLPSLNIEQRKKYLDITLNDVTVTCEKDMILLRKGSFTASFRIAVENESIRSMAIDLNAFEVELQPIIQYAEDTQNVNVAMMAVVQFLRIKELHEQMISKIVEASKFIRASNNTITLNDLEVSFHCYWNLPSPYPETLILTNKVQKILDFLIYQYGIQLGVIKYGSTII
T1 sequence (Q6CVQ9 1-293): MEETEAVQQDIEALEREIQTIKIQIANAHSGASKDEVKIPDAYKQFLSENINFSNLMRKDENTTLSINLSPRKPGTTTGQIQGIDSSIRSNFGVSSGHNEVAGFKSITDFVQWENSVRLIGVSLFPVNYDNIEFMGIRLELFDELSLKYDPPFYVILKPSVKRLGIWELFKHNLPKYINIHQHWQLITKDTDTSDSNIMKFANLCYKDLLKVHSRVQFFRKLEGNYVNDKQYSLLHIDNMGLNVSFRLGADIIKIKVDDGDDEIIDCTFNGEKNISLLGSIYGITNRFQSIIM
Description: For our MST measurements (Wienken et al, 2010), we labelled purified Ctf19‐Mcm21 with a red fluorescent dye (NT‐647‐NHS), which covalently modifies lysine side chains, in company‐provided “labelling buffer” at 22–25°C, according to the manufacturer's instructions (Nanotemper Technologies), with a 1:4 molar ratio of Ctf19‐Mcm21 and dye. We transferred fluorescently labelled Ctf19‐Mcm21 and Okp1‐derived peptide, or variants of Okp1‐derived peptide (Fig 6G), to ITC/MST buffer. We prepared dilution series of peptides, and combined with a uniform volume of Ctf19‐Mcm21 in PCR tubes, before transferring to NT.115 MST premium‐coated glass capillaries (Nanotemper Technologies). For all our measurements, the total Ctf19‐Mcm21 concentration in the capillaries was ~27 nM. We measured MST data on an NT.115 Monolith BLUE/RED instrument (Nanotemper Technologies) at 22–25°C. Samples were heated with an infrared laser (λ: 1,474 nm ± 15 nm) set to 20% MST power (30 s on; 5 s off), and fluorophores excited with a laser (excitation λ: 625 nm; emission λ: 680 nm) set to 60% LED power. For all our MST measurements, fluorescence intensity counts were 350–500. We derived our binding data from the “thermophoresis + T jump” fluorescence signal. For each unique peptide sample, we measured data from three separately prepared dilution series. […]

[2] = dynamic light scattering; assay type: physicochemical; settings: DLS at 15 °C, ~21 µM (assuming COMA dimer) or similar concentrations
[3] = target: T2, Nkp1-Nkp2 heterodimer (K. lactis) (Kluyveromyces lactis, UniProt Q6CPR4 1-210; Q6CSR8 1-151); test: SEC; Superdex 200 HiLoad 10/600 prep grade column (Appendix Fig S7B); settings: both partners purified
T2 construct: Nkp1 of Kluyveromyces lactis; Nkp2 of Kluyveromyces lactis; also called NN; source: E. coli BL21 Rosetta 2(DE3)pLysS, purified
T2 sequence (looked up) 1: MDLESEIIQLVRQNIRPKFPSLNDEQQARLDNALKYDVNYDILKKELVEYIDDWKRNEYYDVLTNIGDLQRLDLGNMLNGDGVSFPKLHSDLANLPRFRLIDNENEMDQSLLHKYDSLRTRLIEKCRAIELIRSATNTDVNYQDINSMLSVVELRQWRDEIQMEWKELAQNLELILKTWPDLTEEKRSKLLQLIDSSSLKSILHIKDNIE
T2 sequence (looked up) 2: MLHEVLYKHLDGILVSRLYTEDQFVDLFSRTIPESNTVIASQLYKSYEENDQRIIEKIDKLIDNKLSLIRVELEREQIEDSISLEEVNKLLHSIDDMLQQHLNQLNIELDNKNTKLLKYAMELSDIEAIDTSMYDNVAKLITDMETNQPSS

[4] = target: T2, Nkp1-Nkp2 heterodimer (K. lactis); test: SEC; analytical SEC of purified K. lactis samples alone and combined, Superdex 200 10/300, 4°C; fractions on SDS-PAGE; settings: both partners purified

N330A-K332P: Okp1 peptide variant differing in two residue positions (SNEIYQQDKIDFALPLKTDF)
dissociation constant (Kd) [1]: no detectable binding

COMA-Nkp1-Nkp2: reconstituted COMA bound with Nkp1-Nkp2
hydrodynamic radius (Rh) [2]: 13.7 nm

B1: Okp1_295-383 (K. lactis) (domain or fragment, Kluyveromyces lactis, UniProt Q6CJY0 295-383, looked up)
chain: KTMHPSLSVALSNTFGLIKDDKMSNEIYQQDKIDFNLKLKTDFSKPLISEKEENSLNGLTNAMDNNRELVNEIFGKISALLQPKKNSNE
notes: source: E. coli BL21 Rosetta 2(DE3)pLysS, co-expressed with Ctf19 and Mcm21 versions, purified
binding result [3]: binds

B2: Okp1_229-383 (K. lactis) (domain or fragment, Kluyveromyces lactis, UniProt Q6CJY0 229-383, looked up)
chain: DNLNMEYIYAKGESIKKRYKSELDRAEAIERQLIREEEHLKSLQEKGETQAKKRKQVLSKELSELSKTMHPSLSVALSNTFGLIKDDKMSNEIYQQDKIDFNLKLKTDFSKPLISEKEENSLNGLTNAMDNNRELVNEIFGKISALLQPKKNSNE
notes: also called Okp1 variant with segments 1, 2 and 3; source: E. coli BL21 Rosetta 2(DE3)pLysS, co-expressed with Ctf19_D-RWD and Mcm21_D-RWD, purified
binding result [4]: binds
